The values below are quoted from earlier work in article PMC3824636.

A word on the pKa: it is the pH at which an ionisable group is half protonated.

The target of data set [1] is Cys149 (UniProt position 156, VSNASCTTNCL). Description: chemical modification or UV-vis (listed collectively, not mapped to individual values). Conditions: not stated (apo or holo not specified).
Data set [2] concerns the target Cys149 (UniProt position 150, VSNASCTTNCL). Described as above. Conditions: not stated (apo or holo not specified).
For data set [3], the target named is Cys149 (UniProt position 152, ISNASCTTNCL). Described as above. Conditions: not stated (apo or holo not specified).
Another data set concerns Cys302. Description: chemical modification (described only as 'titration of Cys-302').

Take “Cytoplasmic glyceraldehyde-3-phosphate dehydrogenase GAPC1 (Arabidopsis thaliana)”: the pKa in the data set with Cys149 [1] is 5.7.

On to “Glyceraldehyde-3-phosphate dehydrogenase (GAPDH) (Escherichia coli)”, for which the pKa in the data set with Cys149 [2] is given as about 5.7.

Consider “Glyceraldehyde-3-phosphate dehydrogenase (GAPDH) (Geobacillus stearothermophilus (Bacillus stearothermophilus))”, for which the pKa in the data set with Cys149 [3] is 5.9.

“Glyceraldehyde-3-phosphate dehydrogenase (GAPDH), pig liver as stated (Sus scrofa)”: the pKa in the data set with Cys149 [2] is given as 5.5.

As to “Non-phosphorylating NADP-dependent glyceraldehyde-3-phosphate dehydrogenase (GAPN) (Streptococcus mutans)”, the values for the pKa in the data set with Cys302 (NADP+-bound (holo-enzyme)) and in the data set with Cys302 (apo-enzyme (no cofactor)) were 6.1 and 8.5, respectively.
